Results on 1 molecule are retold here after publication doi:10.1101/2024.04.30.591959.

This assay addresses T1, human propionyl-CoA carboxylase β subunit (human (endogenous in Expi 293F)), P05166.
T1 chain: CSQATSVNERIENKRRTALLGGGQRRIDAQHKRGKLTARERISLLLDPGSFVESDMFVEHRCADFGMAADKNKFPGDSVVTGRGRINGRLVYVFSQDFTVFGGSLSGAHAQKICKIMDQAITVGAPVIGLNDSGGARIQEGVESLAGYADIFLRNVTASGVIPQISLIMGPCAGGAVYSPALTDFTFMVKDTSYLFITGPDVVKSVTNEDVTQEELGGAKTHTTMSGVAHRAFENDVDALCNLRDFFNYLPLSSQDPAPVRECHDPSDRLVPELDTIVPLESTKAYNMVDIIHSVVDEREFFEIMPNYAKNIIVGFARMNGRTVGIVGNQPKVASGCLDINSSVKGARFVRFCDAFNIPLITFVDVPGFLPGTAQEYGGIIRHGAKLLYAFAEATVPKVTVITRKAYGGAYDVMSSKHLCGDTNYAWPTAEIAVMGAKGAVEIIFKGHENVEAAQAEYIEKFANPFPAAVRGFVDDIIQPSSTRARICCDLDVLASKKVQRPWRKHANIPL
In words: cryo-EM structure. Particulars: remark: other sources report otherwise.

B1: human propionyl-CoA carboxylase β subunit, P05166 29-539 (natural protein)
chain: T1 chain
The term stoichiometry N denotes a count of units in the complex or per binding partner. B1 came in with a stoichiometry N of 6.
